Measurements from the DeepSol protein solubility set.

test: soluble on expression in E. coli; label from the status in PepcDB or PDB records

| Sequence | soluble on expression in E. coli |
| --- | --- |
| MGSDKIHHHHHHMLKVSDLRLKYPNGQRKIFDHLNITIQDKEKVLLLGPSGCGKSTLLNVLSGIVPNLIELPMKYDELIVDPLSGVIFQDPDSQFCMPKVYEELAFVLENRQVPREDMDALIINALNMVNLNVTPETYIKDLSGGMKQKLAIVETILQQSKTLFLDEPTAMLDVQATEDLWTKLIELWEDQTVVIVEHKVKHIWNHVDRVILMDYNGNIIADECPEIILQKYVHLLSEYGVWHPRAWEFAPSRVDFPTTNSHLLQFKNGRIIRGKSTLLSFSDLEIGLGEWITITGANGSGKTTLLESIMQLIKYQGDVYFENQRLTKIKHAAKHMYLVYQNPELQFITNSVYDEINIHFNHLSKDQSDDETIQLLKLLDLQNVKDQHPYELSIGQKRRLSVATALSSKADIIFLDEPTFGLDSHNTFQLIKLFQKRINLGQSIVMVTHDDEIIERYPSRRLKISDGALLDCDGDTNV | not soluble |
| MTVPLYKQIASLIEDSIVDGTLSIDQRVPSTNELAAFHRINPATARNGLTLLVEAGILYKKRGIGMFVSAQAPALIRERRDAAFAATYVAPLIDESIHLGFTRARIHALLDQVAESRGLYK | not soluble |
| ARFMAVSSELKDDTRTYTVAGQVFFASSDRFMSHFDFREAVERVVIDVTHAHFWDITSVSALDRVVIKFRREGTEVEIKGMNDATRTLVDRFGVHDKPEEVEKLMGGH | not soluble |
| MKKITINDLMKWKQEGRKFATSTAYDASFAQLFESQEMPVLLVGDSLGMVLQGETDTLPVTVDDIAYHTRCVRKGSPNCLLMADMPFMSYATPEQACENAAKLVRAGANMVKIEGGDWLVDTVKMLTERAVPVCAHLGLTPQSVNIFGGYKVQGREQDKADRMVRDALALQEAGAQIVLLECVPAELANRITQILDVPVIGIGAGNGTDGQILVMHDMFGISANYMPKFSKNFLAETGDIRQAVAKYIEDVASGAFPDLAHTIALEHHHHHH | soluble |
| SLEEPPKAVELEGLAACEGEYSQKYSTMSPLGSGAFGFVWTAVDKEKNKEVVVKFIKKEKVLEDCWIEDPKLGKVTLEIAILSRVEHANIIKVLDIFENQGFFQLVMEKHGSGLDLFAFIDRHPRLDEPLASYIFRQLVSAVGYLRLKDIIHRDIKDENIVIAEDFTIKLIDFGSAAYLERGKLFYTFCGTIEYCAPEVLMGNPYRGPELEMWSLGVTLYTLVFEENPFCELEETVEAAIHPPYLVSKELMSLVSGLLQPVPERRTTLEKLVTDPWVTQPVNLADYTWEEVCRVNKPESGVLSAASLEMGNRSLSDVAQAQELCGG | not soluble |
| MSLKDRYILAFETSCDETSVAVLKNDDELLSNVIASQIESHKRFGGVVPEVASRHHVEVITACIEEALAEAGITEEDVTAVAVTYGPGLVGALLVGLSAAKAFAWAHGLPLIPVNHMAGHLMAAQSVEPLEFPLLALLVSGGHTELVYVSEAGDYKIVGETRDDAVGEAYDKVGRVMGLTYPAGREIDELAHQGQDIYDFPRAMIKEDNLEFSFSGLKSAFINLHHNAEQKGESLSTEDLCASFQAAVMDILMAKTKKALEKYPVKTLVVAGGVAANKGLRERLATEITDVNVIIPPLRLCGDNAGMIAYASVSEWNKENFANLDLNAKPSLAFDTMEEGHHHHHH | soluble |
| MHLDVLDLHNFYYRTPLGRVAQRAVRDQVQKLWPDAQGQTVAGFGFSVPLLRPYLEQARRLIALMPGPQGVMPWPVGMGNVSVLCEEGAWPLSTGMVDKLVMLHGLETSEHPSEVLSEAWRVLGPGGRALFIVPSRSGLWARRDGTPFGFGRPYSLNQLEAQLKRHDFTPERALAALFAPPLHQRFWLKTADFWETGGRRFAPWLVGGVLIVEASKQVYAPTRTGLKAAVSKPLRVLEGIPQPLPAPAGRTSDGSCGCPGGC | not soluble |
| MGHHHHHHSHMYSLNQEIKAFSRNNLRKQCTRVTTLTGKKIIETWKDARIHVVEEVEPSSGGGCGYVQDLSSDLQVGVIKPWLLLGSQDAAHDLDTLKKNKVTHILNVAYGVENAFLSDFTYKSISILDLPETNILSYFPECFEFIEEAKRKDGVVLVHCNAGVSRAAAIVIGFLMNSEQTSFTSAFSLVKNARPSICPNSGFMEQLRTYQEGKESNKCDRIQENSS | not soluble |
| MGSSHHHHHHSSGLVPRGSHMASGLVPRGSHMASMPEASFFTDMLQSITDHGRQLLFSGSRNTQAAAKADLETLCEMLLSSRGEASGMALAAEILDRWGALDSEGAQKFFHMLQQKFGPDTARLDQAIEDYRTDKSSTAVIALHQAAEPRRQELLRRLNHAPNGTATLVRMRQQLLASKDRSEAYHALDADFTHLFGSWFNRGFLTLRPIDWTTPAYILEKIIQYEAVHEIAGWEELRRRLAPADRRCFAFFHPRLADEPLVFVEVALTRSVPKAIADVLDEGREQINADEATTAVFYSISNCQDGLRGISFGNFLIKQVVEDLRKDLPGLKNFVTLSPVPGFARWLAKMRTATGDRSLSEAALKTLSLLDDPNWPGSESSAADVERVLLPLAARYFLTERTPEGRPVDPVARFHLGNGARLERVNFLGDRSPKALQQAHGLMVNYLYKLDDIVANHEALAQRGEVIASPAVKSLLNQNDEGRRSGNGQQGSRAFAQLMNSTLGGGRK | soluble |
| MGSDKIHHHHHHMRVLVVGLGNMGQSHALAHHAADGVEIIGLVNRSSRDLPGALQGYPMIQTVEEGLALSPDLVVIATYSDTHADLACQAMRAGAHVFVEKPLATTVADAKGVVETARETGQKLVVGYILRHHPSWMRLIEEARALGGPYVFRMNLNQQSTGAEWATHKALMQTTSPIVDCGVHYVDVWCQITDARPVAVHGMGLRLSDEIAPEMYNYGQFQVFFDDGSVGWYEAGWGPMMSEVAFFVKDVISPNGAVSITEADKAGSADIDGHTKVGGVLVHRPGDDQLIEFEGEPGHQELCDAEQAFMRRAIAEDLDLSRHMEDAVRSLAICLAADESIRTGQRVTL | not soluble |
| MIDTTVFQNKTAVYYTLGCKLNFSETSTIGKILREAGVRTARKGEKADICVVNTCSVTEMADKKCRQAIHRLVKQHPGAFVVVTGCYAQLKPGDVAKIKGVDVVLGAEQKGDLLQYLGDLHKHEEGEAFTTTTKDIRSFSPSCSRGDRTRFFLKVQDGCDYFCSYCTIPFARGRSRNGTVASMVEQARQAAAEGGKEIVLTGVNIGDFGKTTGETFFDLVKALDQVEGIERYRISSIEPNLLTDEIIEFVSRSRRFMPHFHIPLQSGCDEVLKLMRRRYDTALFASKVKKIKEVMPDAFIGVDVIVGTRGETEEYFEQAYQFISGLDVTQLHVFSYSERPGTQALKIDYVVSPEEKHQRSQRLLTLSDEKTRAFYTRHIGQTMQVLMEKSKAGTPMHGFTANYIRVEVENDESLDNQMINVRLGEFNEDMTALKGTILMNYEV | not soluble |
| MSLGLAIIHSRASIGVQAPPVTVEVHISNGMPGFTLVGLPETTVKESRDRVRSAIINSRFEFPAKRITVNLAPADLPKEGGRFDLPIALGILAASDQIARNKLESYEFIGELALSGEIRGVKGVLPAALAANQVERCLVVPHSNGDQAALVGVERHKSAQSLLEVCADLCGQQTLSLFQSSPSVQQVSQTRDLQDIIGQQQGKRALEIAAAGNHNLLFLGPPGTGKTMLASRLCDLLPEMSDEEAMETASIASLTQQEINQHNWKLRPFRAPHHSSSMAALVGGGTIPRPGEISLAHNGLLFLDEMPEFERKVLDSLREPLESGEIVISRAQGKTRFPARFQLVGALNPSPTGYYEGSQARANPQSILRYLSRLSGPLLDRFDMSIEIPALPKGTLANGGDRGESTAAVRQRVWVARERMLARSGKVNALLQSREIEQYCPLLKADAEFLESALHRLGLSIRAYHRIIKVARTIADLQGEAQIARPHLAEALGYRAMDRLLKQLSAQNEGHHHHHH | soluble |
| MSLLANLPPLVTVFGGSGFVGRHVVRMLAKRGYRIRVAVRRPDLAGFLQPLGNVGQISFAQANLRYRDSIIKAVEDADHVVNCVGILAESGRNTFDAVQEFGAKAIAEAARDTGATLTHISAIGADANSQTGYGRTKGRAEAAIHSVLPGAVILRPSIIFGPEDDFFNKFAKMARNLPFLPLIGGGKTKFQPVYVEDVAEAVARSVDGKLKPGAIYELGGPDVMTFRDCLEAVLAATYRERSFVNLPFGVASMIGKLASLVPLITPPLTPDQVTMLKKDNVVSAEAEKKGLTLEGIGITPVRVASVLPSYMVQYRQHGQFSNAGKAAEGHHHHHH | soluble |
| MSLVLNDLLICCRQLEHDRATERKKEVEKFKRLIRDPETIKHLDRHSDSKQGKYLNWDAVFRFLQKYIQKETECLRIAKPNVSASTQASRQKKMQEISSLVKYFIKCANRSK | not soluble |
| MKVSLVIPTYNSKDLVAPCLVSLNHQRLDEADEFEVVLVDDGSTDGTGEVVDSLPLTYRIRRVYVPRTEKSCRSAARNAGIRAADGELIVFVDGDQIIDPLFVQEHIRCHRGRPAIVAIGFRDYQAPGAVDLALLERSFTPEAFPPVADQDERAQVTATLSQNMGNLATGWHFFYGCNVSVRKEHLLAVGGFDENIQKWSFEDVELGYRLHRRGLAFVHNLYSRVYHQFHPESDQERYADWRENFEYFTSKHPELEVRLQWVLDSYFDPGRTSRPSWFDAYLRFEFACRAVAERLPIGHSYEVLVVDADNLDSAEREIARVGAAHDLIVVDITDDRELPTAVQAMRTGRELLYFKEPSPELLQQAAKSFGCAALLKYAAEVLEHHHHHH | soluble |
| MLASIPLKDIQIQDRFWKERLDLVRKEIIPYQWEAMNDRVPNAEPSHCIENYRIAAGQAQGSFYGEVFQDSDLAKWLEAVAYVLSFQPDPKLEKLADEAIELVCAAQQSDGYLNTFFTIKEPDQRWRNLREGHELYCAGHMMEAAVAYFEATGKRRLLDAMMRFADLICNTFGPEEGKIHAYPGHEEVELALFRMYRATGVRRYLELSAYFINCRGTGENYFRKENDRPGYLPIWGSMDTNSDMSYYQAHQPVREQKQAAGHAVRAMYLYSAMADLAGELKDEGLLNACKTLWNNVTERQMYVTGGVGASGILERFTTDYDLSNEMAYAESCASIGLMLFGLRMNRVTRQAQYFDPVERALYNTVLASVALDGKSFFYVNPLEVWPKACMPYTSKEHVKPVRQPWFSCACCPPNVARTFASLGQYIWAQDSQRVYLNLFISSTVKAKNGAILKLETEFPMGNVLKITSDQVLELAVRIPGYGKNFRANVSYRKENGYGVFELEAGKELEIQFDAPACFIRANPEVRACSGKVCIQRGPVVYCLEEIDNGSNLSALSVDTAVSPGERESDIPGGLMITASGKRRRPWADDKLYGEIPSQYEETVLQAVPYAFWGNREKGEMTVWIRESLEHHHHHH | not soluble |
| MAHHHHHHSLRMTQAKTYKVSRDETQHGKDSEHHLIAGYNSSMRLWHNEEPSDTADKTPRSHEYETLGYVISGQVELTVDGQTLTLSAGDSYRVPKGAEHVFRVTETLTAVEVTTPATNKEG | soluble |
| MSLAADTLRIKQLQRCGDLFSDSQQRWCLCAEGLRANLPTVWLGGTRLSEADIERQGDRLTLKLARQAQRSAPLWLADGGRTSNPVWLTRQRSHVIAAGPDEVAKNMDGLTTYVDLVSLLIEEKYDGLGEARRIAGKYGAQVVGAIPPLNVYQLRLPVEDLVQRDAMVLRMGSEVSVDAVIVEESAPERGEEGNGRGTRAIDQADEWAANRFMDALYFYRRRIAASGLPVKPVRVGVIEREVDFDAPGFSHYRGGCEQGQTCLYARDGNRPASHGSHVAGILAAQGEGFLPGLGKHSPGFEVMVERNSDAGITANIAASVNLVEDGVRVLNWSWGIHRVGARDVNGDEVDSLVRSGLAMSGYEELLEEFFLWLRKEHPDVVVVNSAGNGASWSGTDEYRLPSSFITEQLLVVGGHQRSGKATAVEAHDHVRKRHSSNIDMRVDVSAAACIRPVSAEAAHCGTSYATPLVTATVATMLSINPALTPEQVRMLLRRSALTLGAEQDFEAMDAEDLTAPILPSERGGRLNDPDLGRSARLDMQRALDLAVQSLERVREGHHHHHH | not soluble |
